The chains are these.
B3: GST-tagged RanBP2 fragment (BICD2 binding domain, aa 2148–2240), on glutathione Sepharose (domain or fragment, human, UniProt P49792 2148-2240, looked up)
chain: DIPLQTPHKLVDTGRAAKLIQRAEEMKSGLKDFKTFLTNDQTKVTEEENKGSGTGAAGASDTTIKPNPENTGPTLEWDNYDLREDALDDSVSS
notes: GST fusion from the pGEX-6P-1 vector; also called GST-RanBP2; BBD; source: E. coli, purified on glutathione Sepharose, not eluted

Assay [1] deals with GST-His6-BICD2-CT (aa 630–820) E770G (mouse) (UniProt Q921C5). Put plainly: pull-down; GST-His6-BICD2-CT WT or mutant on glutathione magnetic beads, incubated 3 hrs at 4°C with untransfected or GFP-Nesprin-2 expressing HeLaM lysate (RIPA buffer); immunoblot with anti-RanBP2, anti-GFP and anti-GST, signal ratio normalised to wildtype. For orientation: A western blot detects proteins with antibodies after separation by electrophoresis.

Assay [2] addresses Purified Nesprin-2 fragment (N2G SR 52–56), used in size exclusion chromatography (mouse) (UniProt Q6ZWQ0). Put plainly: SEC; pairwise mixtures, Nesprin-2 or RanBP2 with BICD2-CC3 WT or mutant at 1:2; 1.3 mg Nesprin-2, 0.2 mg RanBP2, 0.4 mg BICD2-CC3; Superdex 200 Increase 10/300 GL; 20 mM HEPES pH 7.5, 150 mM NaCl, 0.5 mM TCEP; bands quantified (Fig 6C-6G, S3, S6). A general note: SEC sorts molecules by how far they enter the pores of the column.

The target of assay [3] is GST-tagged Nesprin-2 fragment (N2G SR 52–56), on glutathione Sepharose (mouse) (UniProt Q6ZWQ0). Description: pull-down; GST-RanBP2 or GST-Nesprin-2 held on glutathione Sepharose (not eluted), purified His6-tagged BICD2 fragment added to the column, washed, eluted; Coomassie-stained SDS-PAGE, bands quantified (3 sets).
For assay [4], the target named is GFP tagged Nesprin-2 fragment (GFP-N2G SR), Q6ZWQ0. Description: GST pull-down with immunoblot quantification. The following applies: chain shown with the change; GFP-Nesprin-2 expressing HeLaM cell lysate; n = 3; parent: est. 1.0; read off a plot.
A further assay has as its target T1, BICD2 aa 630–800 (mouse, UniProt Q921C5-1 630-800).
T1 construct: Bicd2 (Bicaudal D2), mouse, aa 630–800, contains the entire predicted CC3 domain; cloned into pet28a (NdeI, XhoI); also called Ms BICD2 aa 630–800
T1 sequence (looked up): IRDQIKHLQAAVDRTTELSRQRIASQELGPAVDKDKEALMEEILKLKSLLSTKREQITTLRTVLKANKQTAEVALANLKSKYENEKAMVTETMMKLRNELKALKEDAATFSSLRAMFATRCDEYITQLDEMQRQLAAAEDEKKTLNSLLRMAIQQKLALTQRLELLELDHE
Description: pull-down; GST-RanBP2 or GST-Nesprin-2 held on glutathione Sepharose (not eluted), purified His6-tagged BICD2 fragment added to the column, washed, eluted; Coomassie-stained SDS-PAGE, bands quantified (3 sets). The settings on record: both partners purified.

Assay [5] concerns the target T2, RanBP2 fragment (aa 2148–2240), GST cleaved (human, UniProt P49792 2148-2240).
T2 construct: expressed as GST fusion from the pGEX-6P-1 vector; also called Hs RanBP2 (aa 2148–2240); BBD
Put plainly: SEC; competition: Nesprin-2, RanBP2 and BICD2-CC3 WT or mutant mixed at 1:1:2 molar ratio; Superdex 200 Increase 10/300 GL; 20 mM HEPES pH 7.5, 150 mM NaCl, 0.5 mM TCEP (Fig 6L, 6M, S3I, S3J). The following applies: both partners purified.

Assay [6] deals with B3. Put plainly: pull-down; GST-RanBP2 or GST-Nesprin-2 held on glutathione Sepharose (not eluted), purified His6-tagged BICD2 fragment added to the column, washed, eluted; Coomassie-stained SDS-PAGE, bands quantified (3 sets). The settings on record: both partners purified.
Assay [7] concerns the target T2, RanBP2 fragment (aa 2148–2240), GST …. Description: SEC; pairwise mixtures, equimolar; Superdex 200 Increase 10/300 GL; 20 mM HEPES pH 7.5, 150 mM NaCl, 0.5 mM TCEP, 1 mM MgCl2; 1.3 mg Nesprin-2, 0.2 mg RanBP2, 0.2 mg BICD2-CC3; fractions on SDS-PAGE (Fig 2D, 2E). The following applies: both partners purified.

As to “GFP tagged Nesprin-2 fragment (GFP-N2G SR) (from UniProt Q6ZWQ0 1-6874) (domain or fragment)”, the fold change in GFP-Nesprin-2 binding against wildtype BICD2-CT in assay [1] was found to be 6 fold.
Turning to “BICD2-CC3 (aa 711–800), His6-tagged (from UniProt Q921C5-1 711-800) (domain or fragment)”, the percent of BICD2-CC3 that co-elutes with Nesprin-2 in assay [2] is 23%.
Regarding “BICD2 aa 750–800 (from UniProt Q921C5-1 750-800) (domain or fragment)”, the amount of bound molecules compared to the longer fragments (aa 630–800 and 711–800) in assay [3] came to 73%.
Consider “BICD2-CC3 (aa 711–800) F739I/R743C (from UniProt Q921C5-1 711-800) (domain or fragment)”, for which the percent of BICD2-CC3 that co-elutes with Nesprin-2 in assay [2] is 94%.

B1: GST-His6-BICD2-CT (aa 630–820) wildtype, Q921C5-1 T699M (protein)
chain: IRDQIKHLQAAVDRTTELSRQRIASQELGPAVDKDKEALMEEILKLKSLLSTKREQITTLRTVLKANKQMAEVALANLKSKYENEKAMVTETMMKLRNELKALKEDAATFSSLRAMFATRCDEYITQLDEMQRQLAAAEDEKKTLNSLLRMAIQQKLALTQRLELLELDHEQTRRGRSKAASKAKPASPSL
As for B1, the ratio to parent in assay [4] turned out to be 0.53.

B2: GST-His6-BICD2-CT (aa 630–820) wildtype, Q921C5-1 L679R (protein)
chain: IRDQIKHLQAAVDRTTELSRQRIASQELGPAVDKDKEALMEEILKLKSLRSTKREQITTLRTVLKANKQTAEVALANLKSKYENEKAMVTETMMKLRNELKALKEDAATFSSLRAMFATRCDEYITQLDEMQRQLAAAEDEKKTLNSLLRMAIQQKLALTQRLELLELDHEQTRRGRSKAASKAKPASPSL
As to B2, the ratio to parent in assay [4] was 2.7.
On to B3, for which, in the assay with BICD2 aa 630–800, the binding result is listed as “binds”.

B4: BICD2-CC3 (aa 711–800), His6-tagged (domain or fragment, mouse, UniProt Q921C5-1 711-800, looked up)
chain: YENEKAMVTETMMKLRNELKALKEDAATFSSLRAMFATRCDEYITQLDEMQRQLAAAEDEKKTLNSLLRMAIQQKLALTQRLELLELDHE
notes: also called Ms BICD2-CC3; source: E. coli LOBSTR-BL21(DE3)-RIL, purified (Ni-NTA)
On to B4, for which the binding result in assay [5] and in assay [6] was “binds” in each case.

B5: BICD2-CC3 (residues 711–800), His6 tag removed (domain or fragment, mouse, UniProt Q921C5-1 711-800, looked up)
chain: YENEKAMVTETMMKLRNELKALKEDAATFSSLRAMFATRCDEYITQLDEMQRQLAAAEDEKKTLNSLLRMAIQQKLALTQRLELLELDHE
As for B5, the binding result in assay [7] is given as “binds”.

Values taken from PMC10022797, “Role of Nesprin-2 and RanBP2 in BICD2-associated brain developmental disorders” (PLOS Genetics, 2023).
